Reference: paper PMC2952866 (Nucleic Acids Research, 2010)

What was measured:
Experiment in all cases: SEC + co-IP
Mcm4 = biological target: T1, Mcm4 (Saccharomyces cerevisiae, UniProt P30665 1-933)
T1 sequence: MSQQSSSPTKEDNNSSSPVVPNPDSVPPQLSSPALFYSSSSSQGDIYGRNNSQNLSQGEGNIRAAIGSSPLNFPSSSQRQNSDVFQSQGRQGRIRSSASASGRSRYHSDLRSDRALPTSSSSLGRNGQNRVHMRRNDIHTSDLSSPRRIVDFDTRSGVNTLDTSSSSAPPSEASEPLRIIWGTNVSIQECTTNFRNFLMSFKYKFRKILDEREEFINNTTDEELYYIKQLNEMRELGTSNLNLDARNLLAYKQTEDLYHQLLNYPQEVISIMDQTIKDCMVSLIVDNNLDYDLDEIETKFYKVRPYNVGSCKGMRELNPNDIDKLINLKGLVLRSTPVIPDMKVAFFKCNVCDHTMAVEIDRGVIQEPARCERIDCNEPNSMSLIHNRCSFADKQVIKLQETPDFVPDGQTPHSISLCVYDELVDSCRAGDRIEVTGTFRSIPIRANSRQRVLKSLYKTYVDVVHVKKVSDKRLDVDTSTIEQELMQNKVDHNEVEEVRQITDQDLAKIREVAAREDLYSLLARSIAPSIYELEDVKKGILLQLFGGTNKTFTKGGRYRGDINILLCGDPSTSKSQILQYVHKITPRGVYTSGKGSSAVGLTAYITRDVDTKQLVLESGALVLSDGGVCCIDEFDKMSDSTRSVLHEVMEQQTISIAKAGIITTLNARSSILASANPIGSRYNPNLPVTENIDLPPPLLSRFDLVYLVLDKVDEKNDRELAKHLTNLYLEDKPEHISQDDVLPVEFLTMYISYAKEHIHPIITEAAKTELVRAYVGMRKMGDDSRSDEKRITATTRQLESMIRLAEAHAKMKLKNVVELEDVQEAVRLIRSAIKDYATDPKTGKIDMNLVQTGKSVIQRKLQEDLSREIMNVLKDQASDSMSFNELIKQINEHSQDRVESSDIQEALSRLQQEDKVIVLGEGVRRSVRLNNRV

Mcm3 = Mcm3 (Saccharomyces cerevisiae, UniProt P24279 1-971)
Chain of Mcm3 (P24279 whole entry): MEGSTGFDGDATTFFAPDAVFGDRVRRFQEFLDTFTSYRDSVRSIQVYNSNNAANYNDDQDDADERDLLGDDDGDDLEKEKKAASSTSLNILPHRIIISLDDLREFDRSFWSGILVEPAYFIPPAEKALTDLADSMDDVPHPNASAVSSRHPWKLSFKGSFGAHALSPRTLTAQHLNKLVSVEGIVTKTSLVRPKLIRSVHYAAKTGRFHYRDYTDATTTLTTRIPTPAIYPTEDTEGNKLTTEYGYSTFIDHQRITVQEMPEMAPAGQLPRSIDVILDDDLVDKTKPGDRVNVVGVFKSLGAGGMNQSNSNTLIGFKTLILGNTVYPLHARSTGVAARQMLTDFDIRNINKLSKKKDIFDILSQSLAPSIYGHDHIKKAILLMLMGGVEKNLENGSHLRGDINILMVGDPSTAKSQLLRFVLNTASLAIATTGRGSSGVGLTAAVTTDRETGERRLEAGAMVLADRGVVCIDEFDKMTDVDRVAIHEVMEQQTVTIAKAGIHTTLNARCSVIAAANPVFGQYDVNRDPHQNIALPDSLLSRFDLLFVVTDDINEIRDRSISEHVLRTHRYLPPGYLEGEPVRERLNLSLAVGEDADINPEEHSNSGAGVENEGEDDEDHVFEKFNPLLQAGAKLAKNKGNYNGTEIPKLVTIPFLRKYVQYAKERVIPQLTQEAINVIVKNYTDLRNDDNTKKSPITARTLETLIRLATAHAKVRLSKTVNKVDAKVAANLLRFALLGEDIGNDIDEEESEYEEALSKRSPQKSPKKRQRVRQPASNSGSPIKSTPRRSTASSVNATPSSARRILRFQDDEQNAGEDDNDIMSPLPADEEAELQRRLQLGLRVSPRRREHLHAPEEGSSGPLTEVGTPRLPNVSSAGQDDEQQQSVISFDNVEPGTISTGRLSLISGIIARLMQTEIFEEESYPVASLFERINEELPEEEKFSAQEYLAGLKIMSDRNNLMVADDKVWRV

Mcm2 = biological target: T2, Mcm2 (Saccharomyces cerevisiae, UniProt P29469 1-868)
T2 sequence: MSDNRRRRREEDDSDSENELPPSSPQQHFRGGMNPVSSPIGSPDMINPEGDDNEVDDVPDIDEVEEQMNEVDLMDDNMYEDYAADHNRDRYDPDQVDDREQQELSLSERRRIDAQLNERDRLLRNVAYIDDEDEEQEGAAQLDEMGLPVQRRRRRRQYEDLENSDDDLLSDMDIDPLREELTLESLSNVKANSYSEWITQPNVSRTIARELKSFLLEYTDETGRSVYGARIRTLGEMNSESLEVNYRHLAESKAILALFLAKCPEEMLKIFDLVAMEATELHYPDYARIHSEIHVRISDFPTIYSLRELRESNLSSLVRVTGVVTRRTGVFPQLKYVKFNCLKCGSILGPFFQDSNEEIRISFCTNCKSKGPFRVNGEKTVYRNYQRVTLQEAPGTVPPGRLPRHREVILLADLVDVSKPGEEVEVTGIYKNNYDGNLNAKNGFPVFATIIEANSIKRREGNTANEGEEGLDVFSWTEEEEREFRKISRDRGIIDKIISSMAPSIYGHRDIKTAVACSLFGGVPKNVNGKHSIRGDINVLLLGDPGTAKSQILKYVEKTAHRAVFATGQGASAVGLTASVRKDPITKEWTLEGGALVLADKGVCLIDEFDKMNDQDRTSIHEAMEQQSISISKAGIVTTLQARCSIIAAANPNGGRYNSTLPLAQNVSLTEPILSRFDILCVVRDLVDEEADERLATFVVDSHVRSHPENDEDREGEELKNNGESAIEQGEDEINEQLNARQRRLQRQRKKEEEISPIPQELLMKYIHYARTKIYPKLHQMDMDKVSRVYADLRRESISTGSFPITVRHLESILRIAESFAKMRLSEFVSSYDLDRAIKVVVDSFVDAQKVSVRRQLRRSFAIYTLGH

Mcm6 = Mcm6 (Saccharomyces cerevisiae, UniProt P53091 1-1017)
Chain of Mcm6 (P53091 whole entry): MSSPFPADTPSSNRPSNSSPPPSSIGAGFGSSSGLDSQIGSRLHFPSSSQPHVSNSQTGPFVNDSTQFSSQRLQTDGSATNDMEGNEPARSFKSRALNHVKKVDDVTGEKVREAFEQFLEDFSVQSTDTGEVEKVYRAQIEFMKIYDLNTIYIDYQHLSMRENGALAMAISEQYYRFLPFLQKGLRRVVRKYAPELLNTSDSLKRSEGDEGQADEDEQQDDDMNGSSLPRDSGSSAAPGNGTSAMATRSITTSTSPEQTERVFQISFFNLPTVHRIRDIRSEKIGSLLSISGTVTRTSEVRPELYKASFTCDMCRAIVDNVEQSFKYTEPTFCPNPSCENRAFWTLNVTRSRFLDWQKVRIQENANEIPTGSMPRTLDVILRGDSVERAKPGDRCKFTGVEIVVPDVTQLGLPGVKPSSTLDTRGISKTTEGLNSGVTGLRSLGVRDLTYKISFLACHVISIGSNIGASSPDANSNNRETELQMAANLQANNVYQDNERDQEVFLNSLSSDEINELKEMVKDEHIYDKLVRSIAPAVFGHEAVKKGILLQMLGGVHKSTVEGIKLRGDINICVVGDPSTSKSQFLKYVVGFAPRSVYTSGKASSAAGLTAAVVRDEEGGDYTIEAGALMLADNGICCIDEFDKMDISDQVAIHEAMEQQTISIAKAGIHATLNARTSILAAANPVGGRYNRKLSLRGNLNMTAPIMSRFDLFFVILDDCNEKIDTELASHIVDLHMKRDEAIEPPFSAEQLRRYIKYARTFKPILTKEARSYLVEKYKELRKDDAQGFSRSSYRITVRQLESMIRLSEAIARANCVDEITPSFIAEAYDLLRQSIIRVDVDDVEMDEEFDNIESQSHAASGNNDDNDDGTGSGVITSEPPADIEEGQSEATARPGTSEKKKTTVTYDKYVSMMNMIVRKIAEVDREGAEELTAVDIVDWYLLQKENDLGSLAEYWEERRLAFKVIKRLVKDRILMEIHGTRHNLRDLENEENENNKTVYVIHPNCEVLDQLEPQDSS

Measured: binding result

B1: Mcm7 (natural protein)
chain: MSAALPSIQLPVDYNNLFNEITDFLVTFKQDTLSSDATRNENEDENLDAENIEQHLLEKGPKYMAMLQKVANRELNSVIIDLDDILQYQNEKFLQGTQADDLVSAIQQNANHFTELFCRAIDNNMPLPTKEIDYKDDVLDVILNQRRLRNERMLSDRTNEIRSENLMDTTMDPPSSMNDALREVVEDETELFPPNLTRRYFLYFKPLSQNCARRYRKKAISSKPLSVRQIKGDFLGQLITVRGIITRVSDVKPAVEVIAYTCDQCGYEVFQEVNSRTFTPLSECTSEECSQNQTKGQLFMSTRASKFSAFQECKIQELSQQVPVGHIPRSLNIHVNGTLVRSLSPGDIVDVTGIFLPAPYTGFKALKAGLLTETYLEAQFVRQHKKKFASFSLTSDVEERVMELITSGDVYNRLAKSIAPEIYGNLDVKKALLLLLVGGVDKRVGDGMKIRGDINVCLMGDPGVAKSQLLKAICKISPRGVYTTGKGSSGVGLTAAVMKDPVTDEMILEGGALVLADNGICCIDEFDKMDESDRTAIHEVMEQQTISISKAGINTTLNARTSILAAANPLYGRYNPRLSPLDNINLPAALLSRFDILFLMLDIPSRDDDEKLAEHVTYVHMHNKQPDLDFTPVEPSKMREYIAYAKTKRPVMSEAVNDYVVQAYIRLRQDSKREMDSKFSFGQATPRTLLGIIRLSQALAKLRLADMVDIDDVEEALRLVRVSKESLYQETNKSKEDESPTTKIFTIIKKMLQETGKNTLSYENIVKTVRLRGFTMLQLSNCIQEYSYLNVWHLINEGNTLKFVDDGTMDTDQEDSLVSTPKLAPQTTASANVSAQDSDIDLQDA
binds: Mcm4 | Mcm3 | Mcm2 | Mcm6
